Source: the supplement of paper PMC10065799, “High-throughput profiling of sequence recognition by tyrosine kinases and SH2 domains using bacterial peptide display” (eLife, 2023)

Legend:
SHP2-C SH2 = assay: SH2 binding enrichment of the phosphorylated peptide, bacterial display (enrichment ratio); higher = better substrate or ligand; peptides without Tyr show the background
Grb2 SH2 = Grb2 SH2 (UniProt P62993); assay: as above
c-Src SH2 = assay: as above
Jak2 = Jak2 (UniProt O60674); assay: phosphorylation enrichment, bacterial display (enrichment ratio); higher = better substrate or ligand; peptides without Tyr show the background
Jak2, sequence (O60674 whole entry, looked up): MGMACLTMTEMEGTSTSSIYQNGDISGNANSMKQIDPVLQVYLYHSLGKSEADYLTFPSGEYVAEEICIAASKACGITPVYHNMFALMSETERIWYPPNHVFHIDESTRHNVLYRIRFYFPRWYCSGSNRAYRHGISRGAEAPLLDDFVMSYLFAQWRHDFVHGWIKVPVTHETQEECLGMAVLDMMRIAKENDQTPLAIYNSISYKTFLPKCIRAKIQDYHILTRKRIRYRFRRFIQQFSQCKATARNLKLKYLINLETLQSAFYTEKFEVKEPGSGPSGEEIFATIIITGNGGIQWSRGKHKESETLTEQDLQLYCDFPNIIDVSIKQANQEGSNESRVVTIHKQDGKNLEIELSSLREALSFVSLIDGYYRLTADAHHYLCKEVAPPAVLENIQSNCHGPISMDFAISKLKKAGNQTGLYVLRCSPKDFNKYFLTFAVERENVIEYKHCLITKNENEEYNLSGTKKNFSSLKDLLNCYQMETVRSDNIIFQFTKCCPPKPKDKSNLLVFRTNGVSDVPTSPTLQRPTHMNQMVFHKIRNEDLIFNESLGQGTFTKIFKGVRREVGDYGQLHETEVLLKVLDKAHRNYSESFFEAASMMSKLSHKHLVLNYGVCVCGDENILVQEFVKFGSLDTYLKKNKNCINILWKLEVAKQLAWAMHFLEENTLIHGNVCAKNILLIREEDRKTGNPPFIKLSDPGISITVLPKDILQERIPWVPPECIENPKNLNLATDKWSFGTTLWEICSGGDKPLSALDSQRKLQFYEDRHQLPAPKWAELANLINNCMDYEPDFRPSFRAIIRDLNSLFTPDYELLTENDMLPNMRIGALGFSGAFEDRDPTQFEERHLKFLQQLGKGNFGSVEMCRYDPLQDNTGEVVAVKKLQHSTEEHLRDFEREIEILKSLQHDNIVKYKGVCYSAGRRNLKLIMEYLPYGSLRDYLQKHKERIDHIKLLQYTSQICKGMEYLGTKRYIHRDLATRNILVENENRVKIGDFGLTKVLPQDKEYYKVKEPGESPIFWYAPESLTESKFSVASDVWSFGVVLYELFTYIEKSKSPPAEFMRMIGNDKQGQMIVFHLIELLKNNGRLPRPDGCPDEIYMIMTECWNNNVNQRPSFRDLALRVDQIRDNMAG

FGFR3 = FGFR3 (UniProt P22607); assay: as above
FGFR3, sequence (P22607 whole entry, looked up): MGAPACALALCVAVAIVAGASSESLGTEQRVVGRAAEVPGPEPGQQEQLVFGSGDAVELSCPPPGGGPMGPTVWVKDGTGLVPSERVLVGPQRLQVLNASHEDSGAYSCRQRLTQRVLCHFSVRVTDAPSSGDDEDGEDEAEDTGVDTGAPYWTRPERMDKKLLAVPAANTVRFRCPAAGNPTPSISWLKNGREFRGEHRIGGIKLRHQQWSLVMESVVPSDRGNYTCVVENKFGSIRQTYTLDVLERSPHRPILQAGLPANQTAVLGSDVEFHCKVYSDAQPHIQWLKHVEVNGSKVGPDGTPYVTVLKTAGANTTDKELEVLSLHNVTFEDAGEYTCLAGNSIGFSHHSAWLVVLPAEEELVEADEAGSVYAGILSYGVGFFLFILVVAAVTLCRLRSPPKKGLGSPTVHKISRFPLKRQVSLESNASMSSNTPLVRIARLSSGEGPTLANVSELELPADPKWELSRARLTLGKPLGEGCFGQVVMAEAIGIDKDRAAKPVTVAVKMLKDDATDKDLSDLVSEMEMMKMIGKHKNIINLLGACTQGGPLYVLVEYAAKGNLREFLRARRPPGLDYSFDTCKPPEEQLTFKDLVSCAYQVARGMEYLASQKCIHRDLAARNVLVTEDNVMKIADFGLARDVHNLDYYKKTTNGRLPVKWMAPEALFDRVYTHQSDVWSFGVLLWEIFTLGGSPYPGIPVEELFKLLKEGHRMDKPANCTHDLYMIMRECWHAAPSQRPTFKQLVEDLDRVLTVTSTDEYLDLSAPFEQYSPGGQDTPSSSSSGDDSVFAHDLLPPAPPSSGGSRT

MERTK = MERTK (UniProt Q12866); assay: as above
AncSZ = assay: as above
c-Src = assay: as above
Fyn = Fyn (UniProt P06241); assay: as above
EPHB2 = EPHB2 (UniProt P29323); assay: as above
c-Abl (mouse) = assay: as above
Fes = Fes (UniProt P07332); assay: as above
Fes, sequence (P07332 whole entry, looked up): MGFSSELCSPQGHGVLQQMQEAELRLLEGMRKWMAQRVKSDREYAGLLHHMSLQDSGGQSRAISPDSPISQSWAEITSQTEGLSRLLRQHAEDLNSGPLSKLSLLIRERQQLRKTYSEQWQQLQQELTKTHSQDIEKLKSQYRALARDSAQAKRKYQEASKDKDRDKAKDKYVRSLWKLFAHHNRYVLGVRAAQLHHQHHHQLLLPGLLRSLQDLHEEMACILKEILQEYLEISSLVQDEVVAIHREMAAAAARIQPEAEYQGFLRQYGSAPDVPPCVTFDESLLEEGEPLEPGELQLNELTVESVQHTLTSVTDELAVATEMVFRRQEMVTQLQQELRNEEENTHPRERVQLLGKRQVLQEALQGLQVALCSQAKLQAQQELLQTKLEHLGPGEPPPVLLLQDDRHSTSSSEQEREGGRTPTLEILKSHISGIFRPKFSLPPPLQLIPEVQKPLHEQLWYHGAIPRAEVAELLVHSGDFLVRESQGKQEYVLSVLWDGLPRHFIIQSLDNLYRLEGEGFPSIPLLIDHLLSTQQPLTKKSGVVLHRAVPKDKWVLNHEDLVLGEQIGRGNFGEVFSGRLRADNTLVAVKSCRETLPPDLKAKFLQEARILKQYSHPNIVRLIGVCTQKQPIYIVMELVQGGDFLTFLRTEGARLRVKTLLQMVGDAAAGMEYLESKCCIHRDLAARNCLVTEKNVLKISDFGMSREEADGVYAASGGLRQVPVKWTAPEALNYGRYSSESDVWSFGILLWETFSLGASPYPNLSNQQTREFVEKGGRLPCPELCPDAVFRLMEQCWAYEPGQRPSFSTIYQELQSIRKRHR

Hck = Hck (UniProt P08631); assay: as above
Hck, sequence (P08631 whole entry, looked up): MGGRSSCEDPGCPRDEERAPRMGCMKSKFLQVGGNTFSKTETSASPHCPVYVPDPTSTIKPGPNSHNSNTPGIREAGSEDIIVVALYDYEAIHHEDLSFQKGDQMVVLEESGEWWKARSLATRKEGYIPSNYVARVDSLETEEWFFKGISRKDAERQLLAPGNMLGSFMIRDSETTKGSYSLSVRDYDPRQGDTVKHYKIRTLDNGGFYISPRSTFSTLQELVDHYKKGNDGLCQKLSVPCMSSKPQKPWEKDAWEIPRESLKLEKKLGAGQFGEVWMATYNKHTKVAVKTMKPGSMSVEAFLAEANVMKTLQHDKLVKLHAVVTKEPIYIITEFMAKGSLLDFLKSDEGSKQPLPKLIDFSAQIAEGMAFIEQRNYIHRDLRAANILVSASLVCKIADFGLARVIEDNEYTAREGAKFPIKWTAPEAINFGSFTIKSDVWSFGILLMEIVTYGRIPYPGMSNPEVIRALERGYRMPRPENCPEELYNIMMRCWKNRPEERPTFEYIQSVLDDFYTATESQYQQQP

Fer (mouse) = assay: as above
FGFR1 = FGFR1 (UniProt P11362); assay: as above
FGFR1, sequence (P11362 whole entry, looked up): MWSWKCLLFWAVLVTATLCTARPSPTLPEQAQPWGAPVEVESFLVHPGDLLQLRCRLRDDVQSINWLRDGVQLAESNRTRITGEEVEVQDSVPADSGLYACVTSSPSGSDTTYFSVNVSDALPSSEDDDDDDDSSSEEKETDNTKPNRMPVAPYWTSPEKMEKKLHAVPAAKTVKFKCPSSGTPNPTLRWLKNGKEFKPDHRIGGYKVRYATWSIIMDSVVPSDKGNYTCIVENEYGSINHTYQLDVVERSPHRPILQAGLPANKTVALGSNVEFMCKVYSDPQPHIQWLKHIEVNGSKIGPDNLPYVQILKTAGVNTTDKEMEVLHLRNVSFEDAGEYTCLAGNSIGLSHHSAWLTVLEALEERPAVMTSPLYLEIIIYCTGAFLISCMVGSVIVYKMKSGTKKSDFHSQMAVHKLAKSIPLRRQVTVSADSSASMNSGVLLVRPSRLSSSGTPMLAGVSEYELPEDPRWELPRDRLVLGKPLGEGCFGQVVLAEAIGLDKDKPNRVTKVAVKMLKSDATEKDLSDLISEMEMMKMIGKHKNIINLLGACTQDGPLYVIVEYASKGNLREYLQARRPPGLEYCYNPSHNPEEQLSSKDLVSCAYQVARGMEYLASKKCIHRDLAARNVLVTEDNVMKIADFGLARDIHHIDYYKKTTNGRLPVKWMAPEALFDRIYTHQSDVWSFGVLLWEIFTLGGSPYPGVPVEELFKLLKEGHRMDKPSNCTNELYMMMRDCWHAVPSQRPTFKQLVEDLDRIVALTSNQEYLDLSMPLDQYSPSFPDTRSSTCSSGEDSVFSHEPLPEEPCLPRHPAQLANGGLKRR

EPHB1 = EPHB1 (UniProt P54762); assay: as above
EPHB1, sequence (P54762 whole entry, looked up, the tested form may be a part): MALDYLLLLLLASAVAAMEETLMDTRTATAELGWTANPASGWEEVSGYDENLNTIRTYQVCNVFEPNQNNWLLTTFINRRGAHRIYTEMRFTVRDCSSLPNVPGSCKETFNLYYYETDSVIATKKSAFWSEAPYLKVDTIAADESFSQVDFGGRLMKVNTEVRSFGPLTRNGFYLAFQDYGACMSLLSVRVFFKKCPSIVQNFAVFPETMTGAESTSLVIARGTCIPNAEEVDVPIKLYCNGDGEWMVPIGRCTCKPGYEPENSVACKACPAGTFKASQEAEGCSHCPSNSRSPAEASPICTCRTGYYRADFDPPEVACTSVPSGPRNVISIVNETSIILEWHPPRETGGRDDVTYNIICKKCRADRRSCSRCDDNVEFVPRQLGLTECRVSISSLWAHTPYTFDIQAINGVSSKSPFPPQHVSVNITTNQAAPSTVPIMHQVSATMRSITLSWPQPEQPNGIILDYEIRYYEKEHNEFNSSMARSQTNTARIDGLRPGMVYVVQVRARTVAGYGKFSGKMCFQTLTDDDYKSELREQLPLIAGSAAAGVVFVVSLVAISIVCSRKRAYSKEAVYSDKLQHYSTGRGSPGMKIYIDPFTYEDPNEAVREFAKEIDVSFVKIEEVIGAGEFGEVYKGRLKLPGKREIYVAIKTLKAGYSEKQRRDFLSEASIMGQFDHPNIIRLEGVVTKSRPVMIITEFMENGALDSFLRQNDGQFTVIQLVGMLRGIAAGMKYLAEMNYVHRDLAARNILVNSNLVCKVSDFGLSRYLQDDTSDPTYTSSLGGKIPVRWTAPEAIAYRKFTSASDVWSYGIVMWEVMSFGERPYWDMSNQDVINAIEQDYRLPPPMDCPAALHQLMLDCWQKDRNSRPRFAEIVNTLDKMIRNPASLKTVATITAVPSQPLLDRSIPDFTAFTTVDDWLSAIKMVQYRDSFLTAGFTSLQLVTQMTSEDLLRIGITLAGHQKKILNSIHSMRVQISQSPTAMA
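Throughout, for SH2 binding enrichment of the phosphorylated peptide, bacterial display: peptide library displayed on the E. coli surface as eCPX fusions, selected cells deep-sequenced, score is each peptide's frequency after selection divided by its frequency in the input.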
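Throughout, for phosphorylation enrichment, bacterial display: 11-residue human phosphosite peptides and single-mutation variants displayed on the E. coli surface, counted by deep sequencing, each peptide's frequency after selection divided by its frequency in the unselected input library; frequency after pTyr selection over input frequency; kinase dosed for 20-30% of maximal phosphorylation in three min.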

Row | Sequence | SH2 binding enrichment (SHP2-C SH2) | SH2 binding enrichment (Grb2 SH2) | SH2 binding enrichment (c-Src SH2) | phosphorylation enrichment (Jak2) | phosphorylation enrichment (FGFR3) | phosphorylation enrichment (MERTK) | phosphorylation enrichment (AncSZ) | phosphorylation enrichment (c-Src) | phosphorylation enrichment (Fyn) | phosphorylation enrichment (EPHB2) | phosphorylation enrichment (c-Abl (mouse)) | phosphorylation enrichment (Fes) | phosphorylation enrichment (Hck) | phosphorylation enrichment (Fer (mouse)) | phosphorylation enrichment (FGFR1) | phosphorylation enrichment (EPHB1)
1 | IHETTYKSIMK [ACTA1_Y281_N282K] | 3.31 | 0.804 | 0.55 | 0.692 | 0.472 | 0.331 | 0.364 | 0.384 | 0.309 | 0.33 | 0.458 | 0.583 | 0.359 | 0.372 | 0.373 | 0.324
2 | IHHIDYFKKTT [FGFR1_Y653_YF] | 0.526 | 0.585 | 0.526 | 0.613 | 0.642 | 0.444 | 0.718 | 0.545 | 0.561 | 0.385 | 0.501 | 0.822 | 0.52 | 0.398 | 0.481 | 0.36
3 | INITIYGKTFR [EFHC1_Y177] | 0.658 | 1.01 | 0.5 | 1.4 | 0.781 | 0.439 | 1.13 | 0.508 | 0.438 | 0.683 | 1.05 | 1.37 | 0.573 | 0.936 | 0.583 | 0.648
4 | INSLKYAYNVS [EIF2B5_Y583_I587V] | 0.636 | 1.01 | 0.654 | 0.571 | 0.525 | 0.443 | 0.642 | 0.6 | 0.633 | 0.354 | 0.643 | 1.01 | 0.424 | 0.419 | 0.522 | 0.402
5 | IQVDAYFSPIH [ADSL_Y432] | 0.529 | 0.797 | 0.604 | 2.15 | 0.772 | 0.551 | 1.17 | 0.484 | 0.605 | 0.75 | 0.936 | 1.33 | 0.684 | 0.652 | 0.638 | 0.738
6 | IQVNAYFSPIH [ADSL_Y432_D430N] | 1.34 | 0.964 | 0.959 | 2.16 | 0.795 | 0.589 | 1.76 | 0.543 | 0.431 | 0.536 | 1.14 | 1.29 | 0.543 | 0.548 | 0.595 | 0.727
7 | IRKAEYPFSSE [ATP2C1_Y452] | 0.598 | 0.89 | 0.471 | 0.594 | 0.424 | 0.341 | 0.595 | 0.365 | 0.363 | 0.341 | 0.454 | 0.758 | 0.404 | 0.366 | 0.392 | 0.414
8 | ISDDNYGRIRL [ARCN1_Y310_K309N] | 0.77 | 1 | 0.518 | 0.525 | 0.428 | 0.344 | 0.554 | 0.885 | 0.704 | 1.21 | 0.402 | 0.516 | 1.83 | 1.32 | 0.407 | 0.521
9 | ISGGGYRARPA [FGB_Y71] | 0.552 | 0.771 | 0.392 | 0.603 | 0.404 | 0.333 | 0.485 | 0.408 | 0.416 | 0.308 | 0.515 | 0.665 | 0.404 | 0.312 | 0.345 | 0.402
10 | ISGLKYPVSQQ [BTK_Y375_R372G] | 0.63 | 0.879 | 0.417 | 0.516 | 0.459 | 0.474 | 0.529 | 0.407 | 0.441 | 0.529 | 0.392 | 0.548 | 0.448 | 0.371 | 0.428 | 0.501
11 | KAEQLYIGVTV [EFHC2_Y509_E507Q] | 0.733 | 0.708 | 0.454 | 0.964 | 2.88 | 2.99 | 1.84 | 2.33 | 2.33 | 0.758 | 0.876 | 1.25 | 3.03 | 6.51 | 3.47 | 1.27
12 | KAIDMYLMGCF [GABRB2_Y308] | 0.648 | 0.823 | 0.44 | 1.04 | 1.04 | 0.425 | 1.27 | 0.75 | 0.515 | 0.551 | 1.06 | 1.21 | 0.535 | 0.486 | 0.504 | 0.566
13 | KAIMIYVSSFY [ACTN4_Y260_T259I] | 0.845 | 0.816 | 0.476 | 1.03 | 0.701 | 0.347 | 0.963 | 0.465 | 0.368 | 0.52 | 0.972 | 1.08 | 0.416 | 0.422 | 0.464 | 0.47
14 | KASRKYFAMKI [AKT3_Y173_G171R_YF] | 0.666 | 0.796 | 0.472 | 0.569 | 0.363 | 0.811 | 0.555 | 0.456 | 0.359 | 0.391 | 0.624 | 0.52 | 0.388 | 0.389 | 0.365 | 0.286
15 | KDKLPYLFDDP [GPX2_Y125_P126L_YF] | 0.773 | 0.731 | 0.347 | 1.01 | 0.544 | 0.426 | 1.23 | 0.557 | 0.479 | 0.515 | 0.557 | 0.969 | 0.468 | 0.423 | 0.472 | 0.632
16 | KEKLCYVAPDF [ACTA1_Y220_L223P] | 0.731 | 0.971 | 0.724 | 1.18 | 0.603 | 0.656 | 1.4 | 0.581 | 0.424 | 0.637 | 5.43 | 0.836 | 0.489 | 0.419 | 0.635 | 0.558
17 | KELAKYFKLHH [AK7_Y390_N389K_YF] | 0.635 | 0.759 | 0.497 | 0.487 | 0.543 | 0.51 | 0.596 | 0.493 | 0.505 | 0.459 | 0.439 | 0.626 | 0.484 | 0.466 | 0.456 | 0.394
18 | KHCEDYVFSFN [DSC1_Y846_C848F_YF] | 0.817 | 0.941 | 0.55 | 1.04 | 1.84 | 0.471 | 1.75 | 1.75 | 0.472 | 0.739 | 0.791 | 1.21 | 0.499 | 0.562 | 1.82 | 0.776

Second part, led by results:

Row | SH2 binding enrichment (SHP2-C SH2) | SH2 binding enrichment (Grb2 SH2) | SH2 binding enrichment (c-Src SH2) | Sequence | phosphorylation enrichment (Jak2) | phosphorylation enrichment (FGFR3) | phosphorylation enrichment (MERTK) | phosphorylation enrichment (AncSZ) | phosphorylation enrichment (c-Src) | phosphorylation enrichment (Fyn) | phosphorylation enrichment (EPHB2) | phosphorylation enrichment (c-Abl (mouse)) | phosphorylation enrichment (Fes) | phosphorylation enrichment (Hck) | phosphorylation enrichment (Fer (mouse)) | phosphorylation enrichment (FGFR1) | phosphorylation enrichment (EPHB1)
19 | 0.766 | 0.815 | 0.453 | IIGNGYFFRVF [MYBPC3_Y1135_YF] | 0.956 | 0.538 | 0.28 | 0.844 | 0.288 | 0.258 | 0.461 | 0.692 | 0.98 | 0.33 | 0.394 | 0.334 | 0.433
20 | 0.605 | 0.825 | 0.507 | IKELTYQMEED [MYH7_Y1852_T1854M] | 1.01 | 0.768 | 0.432 | 1.19 | 1.21 | 0.889 | 0.628 | 0.667 | 1.18 | 0.646 | 0.495 | 0.591 | 0.634
21 | 0.716 | 0.871 | 0.829 | IKGIRYLHHQG [GUCY2D_Y656_R660Q] | 0.414 | 0.45 | 0.455 | 0.684 | 0.428 | 0.378 | 0.387 | 0.403 | 0.587 | 0.401 | 0.417 | 0.465 | 0.45
22 | 1.1 | 0.979 | 0.718 | ILCTVYAFKMR [GRM3_Y754_T758M] | 1.09 | 0.89 | 0.47 | 1.46 | 0.65 | 0.567 | 0.568 | 0.883 | 1.47 | 0.55 | 0.553 | 0.503 | 0.97
23 | 0.792 | 0.85 | 1.02 | ILGRFYETSSI [PAX2_Y73_G76S_YF] | 0.665 | 0.463 | 0.472 | 0.66 | 0.47 | 0.399 | 0.47 | 0.606 | 0.813 | 0.531 | 0.887 | 0.417 | 0.516
24 | 0.944 | 1 | 0.648 | IPGVEYLVSII [TNC_Y1775] | 1.19 | 0.723 | 0.409 | 1.02 | 0.5 | 0.432 | 0.574 | 0.664 | 1.14 | 0.491 | 0.445 | 0.552 | 0.667
25 | 0.73 | 0.762 | 0.419 | ISSLDYISKTK [VAV3_Y294] | 0.495 | 0.513 | 0.537 | 0.703 | 0.487 | 0.559 | 0.463 | 0.478 | 0.696 | 0.447 | 0.386 | 0.505 | 0.626
26 | 0.622 | 0.868 | 0.513 | ITKNPYDPPGR | 0.662 | 0.645 | 0.424 | 0.657 | 0.433 | 0.432 | 0.428 | 0.556 | 0.766 | 0.454 | 0.437 | 0.427 | 0.457
27 | 0.716 | 0.999 | 0.785 | IVRSLYKDLED [VHL_Y185_E186K] | 0.877 | 0.688 | 0.496 | 1.25 | 0.445 | 0.535 | 0.559 | 0.691 | 1.19 | 0.479 | 0.688 | 0.502 | 0.497
28 | 1.11 | 0.923 | 2.31 | IYKAAYFGVYD [SLC25A4_Y191_R188K] | 0.993 | 0.745 | 1.4 | 1.17 | 5.18 | 6.16 | 1.32 | 0.865 | 1.05 | 5.77 | 0.893 | 0.628 | 1.4
29 | 0.72 | 0.915 | 0.991 | KAESWYQTKFE [KRT75_Y342_E337K_YF] | 0.871 | 0.538 | 0.6 | 0.873 | 0.662 | 0.518 | 0.482 | 0.839 | 1.07 | 0.543 | 0.594 | 0.468 | 0.567
30 | 0.379 | 0.648 | 0.447 | KEGSAYGSQSV [NFKB2_Y868_D865G] | 0.673 | 0.498 | 0.436 | 0.58 | 0.468 | 0.395 | 0.384 | 0.632 | 0.75 | 0.426 | 0.423 | 0.312 | 0.461
31 | 0.634 | 0.721 | 0.503 | KELSNYKHLTL [SLIT2_Y776] | 0.543 | 0.43 | 0.443 | 0.571 | 0.368 | 0.417 | 0.409 | 0.522 | 0.528 | 0.384 | 0.423 | 0.501 | 0.494
32 | 1.19 | 1.3 | 2.76 | KGIQLYDTPFE [SHB_Y297_YF] | 0.843 | 0.584 | 4.56 | 1.13 | 0.729 | 0.712 | 12.9 | 0.965 | 0.911 | 1.73 | 2.8 | 0.511 | 8.6
33 | 4.67 | 0.736 | 10.5 | KGSLPYSLILD [PKD1L2_Y406_N407S] | 1.19 | 2.16 | 1.93 | 1.08 | 1.63 | 0.734 | 0.675 | 0.86 | 1.23 | 0.671 | 1.06 | 2.32 | 0.822
